{"source": "patent US5654179A", "about": "“Nucleic acid preparation methods” (HRI Research, Inc., priority 1994, dated 1997)", "key": {"Taq polymerase [1]": {"tested_on": "Taq polymerase", "experiment": "Mode III whole blood, globin PCR (KM-29/HRI-12) with inhibitor treatment", "format": "biochemical", "conditions": "250 μg bovine transferrin, 10 mM sodium bicarbonate; 25,000 to 0 cells; no product without treatment", "procedure": "Generally, PCR was carried out using 175-200 μM dNTPS (deoxyribonucleoside 5'-triphosphates) and 0.5 to 1.0 μM primers. Five units/100 μl of Taq polymerase were used. PCR reactions were overlaid with 30-100 μl light mineral oil. A typical PCR cycle for HIV amplification using a Perkin-Elmer Cetus DNA Thermal Cycler (Part No. N8010150) was: denaturation at 95° C. for 30 seconds; annealing at 55° C. for 30 seconds; and extension at 72° C. for 1 minute. PCR cycles were normally carried out in this manner for 35 cycles followed by 7 minutes at 72° C.\nIn one case, amplification of globin sequences was performed using primer pair KM-29 (SEQ ID NO:10)and HRI-12 (SEQ ID NO:11) to give a 174 bp product within the human beta globin gene.\nWhole blood samples were lysed with protease K (500 μg/ml, 55° C. for 1 hour). The enzyme was inactivated by heating (95°-100°C., 10 minutes). Aliquots corresponding to 25,000, 10,000, 5,000, 2,000, 1000, 500 and 0 cells were made. Bovine transferrin (250 μg) was added to each sample as well as the cofactor sodium bicarbonate (adjusted to 10 mM) and the reaction was incubated at room temperature for 30 minutes. Concentrated PCR reagents were then added to each sample to a final volume of 100 μl. […]"}, "Taq polymerase [2]": {"tested_on": "Taq polymerase", "experiment": "HIV PCR after inhibitor treatment of whole blood lysate", "format": "biochemical", "conditions": "with cofactor sodium bicarbonate", "procedure": "The enzyme was inactivated by heating (95°-100° C., 10 minutes)."}}, "data": [{"molecule": "Bovine Transferrin: bovine transferrin (protein, UniProt Q29443 20-704, looked up) Serotransferrin: DPERTVRWCTISTHEANKCASFRENVLRILESGPFVSCVKKTSHMDCIKAISNNEADAVTLDGGLVYEAGLKPNNLKPVVAEFHGTKDNPQTHYYAVAVVKKDTDFKLNELRGKKSCHTGLGRSAGWNIPMAKLYKELPDPQESIQRAAANFFSASCVPCADQSSFPKLCQLCAGKGTDKCACSNHEPYFGYSGAFKCLMEGAGDVAFVKHSTVFDNLPNPEDRKNYELLCGDNTRKSVDDYQECYLAMVPSHAVVARTVGGKEDVIWELLNHAQEHFGKDKPDNFQLFQSPHGKDLLFKDSADGFLKIPSKMDFELYLGYEYVTALQNLRESKPPDSSKDECMVKWCAIGHQERTKCDRWSGFSGGAIECETAENTEECIAKIMKGEADAMSLDGGYLYIAGKCGLVPVLAENYKTEGESCKNTPEKGYLAVAVVKTSDANINWNNLKDKKSCHTAVDRTAGWNIPMGLLYSKINNCKFDEFFSAGCAPGSPRNSSLCALCIGSEKGTGKECVPNSNERYYGYTGAFRCLVEKGDVAFVKDQTVIQNTDGNNNEAWAKNLKKENFEVLCKDGTRKPVTDAENCHLARGPNHAVVSRKDKATCVEKILNKQQDDFGKSVTDCTSNFCLFQSNSKDLLFRDDTKCLASIAKKTYDSYLGDDYVRAMTNLRQCSTSKLLEACTFHKP", "values": [{"measurement": "globin PCR product after inhibitor treatment", "setting": "Taq polymerase [1]", "result": "decreasing product band corresponding to the decreasing amount of cells"}]}, {"molecule": "rat transferrin: transferrin from rat (protein, UniProt P12346 20-698, looked up) Serotransferrin: VPDKTVKWCAVSEHENTKCISFRDHMKTVLPADGPRLACVKKTSYQDCIKAISGGEADAITLDGGWVYDAGLTPNNLKPVAAEFYGSLEHPQTHYLAVAVVKKGTDFQLNQLQGKKSCHTGLGRSAGWIIPIGLLFCNLPEPRKPLEKAVASFFSGSCVPCADPVAFPQLCQLCPGCGCSPTQPFFGYVGAFKCLRDGGGDVAFVKHTTIFEVLPQKADRDQYELLCLDNTRKPVDQYEDCYLARIPSHAVVARNGDGKEDLIWEILKVAQEHFGKGKSKDFQLFGSPLGKDLLFKDSAFGLLRVPPRMDYRLYLGHSYVTAIRNQREGVCPEGSIDSAPVKWCALSHQERAKCDEWSVSSNGQIECESAESTEDCIDKIVNGEADAMSLDGGHAYIAGQCGLVPVMAENYDISSCTNPQSDVFPKGYYAVAVVKASDSSINWNNLKGKKSCHTGVDRTAGWNIPMGLLFSRINHCKFDEFFSQGCAPGYKKNSTLCDLCIGPAKCAPNNREGYNGYTGAFQCLVEKGDVAFVKHQTVLENTNGKNTAAWAKDLKQEDFQLLCPDGTKKPVTEFATCHLAQAPNHVVVSRKEKAARVSTVLTAQKDLFWKGDKDCTGNFCLFRSSTKDLLFRDDTKCLTKLPEGTTYEEYLGAEYLQAVGNIRKCSTSRLLEACTFHKS", "values": [{"measurement": "activity as interfering reagent", "setting": "Taq polymerase [2]", "result": "does not work as an interfering reagent"}]}]}
